Assay results: patent US9750803B2, “Lipid vesicle compositions and methods of use” (priority 2010, dated 2017)

How the values were obtained:
[1] = system: OVA-specific naïve OT-I CD8+ T-cells; experiment: CFSE dilution proliferation assay of OT-I CD8+ T-cells co-cultured with pulsed splenic DCs; assay type: cell-based; details: DCs pulsed with 0.7 μg/mL OVA equivalent, 0.1 μg/mL MPLA, day 3
Protocol: FIGS. 7A-7C. In vitro stimulation of immune responses by ICMVs supplemented with the TLR agonist MPLA. (A) Flow cytometry analysis of expression of the cell surface costimulatory markers CD40, CD80, and CD86 on splenic dendritic cells (DCs) after 18 hr incubation with 0.7 μg/mL soluble OVA, equivalent doses of OVA loaded in ICMVs, or ICMVs loaded with an irrelevant protein (vivax malaria protein, VMP), in the presence or absence of 0.1 μg/mL MPLA. (B) Splenic DCs were incubated for 18 hr with 10 μg/mL […] peptide (OVA257-264), 5.0 μg/mL soluble OVA, equivalent doses of OVA loaded in ICMVs, or VMP-loaded ICMVs in the presence or absence of 0.05 μg/mL MPLA, and the extent of cross-presentation of OVA was assessed by flow cytometry analysis of cells stained with the 25-D1.16 mAb that recognizes […] complexed with H-2K^b. (C) 5-(6)-carboxyfluorescein diacetate succinimidyl diester (CFSE)-labeled OVA-specific naïve OT-I CD8^+ T-cells were co-cultured with syngeneic splenic DCs pulsed with soluble 0.7 μg/mL OVA mixed with 0.1 μg/mL MPLA, or equivalent doses of OVA-loaded ICMVs mixed with MPLA. Empty ICMVs without antigen or ICMVs loaded with the irrelevant antigen VMP were included as negative controls. Proliferation of CD8^+ T-cells was assessed on day 3 by flow cytometry analysis of the dilution of CFSE in the OT-I CD8^+ T-cells; shown are histograms of CFSE fluorescence. […]

[2] = system: C57Bl/6 mice; experiment: Example 2 vaccination: tetramer+ OVA-specific CD8+ T-cells in PBMCs; assay type: in vivo, mouse; details: mixed with 0.1 μg MPLA
Protocol: (§1) Vaccination study with ICMVs. Groups of C57Bl/6 mice (Jackson Laboratories) were immunized s.c. in the tail base with indicated doses of OVA (with or without TLR agonist MPLA). Frequencies of OVA-specific CD8^+ T-cells and their phenotypes elicited by immunization were determined by flow cytometry analysis of PBMCs at selected time points following staining with DAPI (to discriminate live/dead cells), anti-CD8 alpha, anti-CD44, anti-CD62L, and […]/H-2K^b peptide-MHC tetramers (Becton Dickinson). To assess functionality of primed CD8^+ T-cells, PBMCs were stimulated ex vivo with 1 μM OVA-peptide […] for 6 hrs with GolgiPlug (Becton Dickinson), fixed, permeabilized, stained with anti-IFN-gamma and CD8 alpha, and analyzed by flow cytometry. Anti-OVA IgG titers, defined as the dilution of sera at which 450 nm OD reading is 0.5, were determined by ELISA analysis of sera from immunized mice. Animals were cared for following NIH, state, and local guidelines.

[3] = system: C57Bl/6 mice; experiment: Example 2 vaccination: anti-OVA IgG serum titers by ELISA; assay type: in vivo, mouse; details: low dose of MPLA (0.1 μg), two boosts, day 56
Protocol: as §1

[4] = system: CD45.1+ recipient mice; experiment: Expansion of adoptively transferred OT-II CD4+ T-cells after immunization; assay type: in vivo, mouse; details: eight days post priming
Protocol: (§2) Germinal center and follicular helper T cell analysis. Mice were immunized s.c. with 5 μg of MPLA and 100 μg of OVA-alexa fluor 555 in either soluble or ICMV formulations (lipids labeled with DiD). At serial time-points, dLNs were isolated, flash-frozen, cryo-sectioned, and examined by confocal microscopy. To identify cell types associated with particles, dLNs were isolated on d 1 or 4, stained with anti-CD11b, anti-CD11c, anti-CD169, anti-CD205, and F4/80, and analyzed by flow cytometry. To assess GC formation, dLNs were isolated on d14 from mice immunized with 1 μg of unlabeled soluble VMP or VMP-ICMVs (both with 0.1 μg MPLA), stained with anti-B220, anti-IgD, anti-GL-7 (BD), peanut agglutinin (Vectorlabs, Burlingame, Calif.), and analyzed by flow cytometry or confocal microscopy. To monitor antigen-specific CD4+ T-cells, […] OVA-specific CD4+ T cells from OT-II (CD45.2+) mice were adoptively transferred i.v. into recipient congenic CD45.1+ mice. After 1 d, recipient mice were immunized s.c. with 10 μg of OVA in either soluble or ICMV formulations, both with 1 μg MPLA. A second comparison group of mice were immunized s.c. with 100 μg OVA in alum. The frequencies of OVA-specific CD4+ T cells and their phenotypes in spleens and dLNs were determined by flow cytometry analysis, following staining with DAPI, anti-CD4, anti-CD45.2, anti-PD-1, and anti-CXCR5 (BD).

[5] = system: C57Bl/6 mice; experiment: Example 3 immunization: anti-VMP IgG serum titers and isotypes by ELISA; assay type: in vivo, mouse
Protocol: (§3) Immunizations. Animals were cared for following NIH, state, and local guidelines. Groups of 6-10-wk old female C57Bl/6 mice (Jackson Laboratories, Bar Harbor, Me.) were immunized s.c. at the tail base with VMP-ICMVs and indicated doses of MPLA (Sigma-Aldrich, St. Louis, Mo.) in 100 μL PBS on day 0 and 21. Control immunizations with soluble VMP were performed using MPLA, Montanide ISA-50 V2 (Seppic, N.J.), or alum (Imject alum, Pierce, Rockford, Ill.) at an adjuvant:protein solution vol. ratio of 1:1 following the manufacturer's instructions.
(§4) Characterization of anti-VMP humoral responses. Sera were analyzed for IgG, IgG1, and IgG2c antibodies by ELISA using VMP-coated plates (Bell et al. 2009 Vaccine 27:1448-1453). Anti-VMP IgG titers were defined as the lowest serum dilution at which the ELISA OD reading was ≧0.5. Avidity measurements were performed by incubating plates with 6 M urea for 10 min at 20° C. to remove weakly bound IgG prior to addition of detection Ab. The avidity index was defined as (IgG titer with 6 M urea/IgG titer without urea)×100. […] Splenocytes isolated 7 d after boost vaccinations were restimulated ex vivo with either PBS or VMP-ICMV at 2 μg/ml, and on d2, cytokine levels in the culture supernatants were measured by flow cytometry (Cytometric Bead Array, BD).

[6] = system: C57Bl/6 mice; experiment: Epitope analysis of anti-VMP sera on VMP peptide fragments; assay type: in vivo, mouse; details: d 90
Protocol: as §3, §4

[7] = system: mice; experiment: Germinal center analysis in draining lymph nodes; assay type: in vivo, mouse; details: 100 ng VMP, with MPLA, histological analysis
Protocol: as §2, with “To assess GC formation, dLNs were isolated on d14 from mice immunized with 1 μg of unlabeled soluble VMP or VMP-ICMVs (both with 0.1 μg MPLA), stained with anti-B220, anti-IgD, anti-GL-7 (BD), peanut agglutinin (Vectorlabs, Burlingame, Calif.), and analyzed by flow cytometry or confocal microscopy.” left out

[8] = system: mice; experiment: Antigen delivery to draining lymph nodes (histology at serial time-points); assay type: in vivo, mouse; details: s.c., with MPLA
Protocol: as §2

## ovalbumin [soluble OVA]
[1]
  Proliferation of OT-I CD8+ T-cells: weak T-cell responses
[2]
  Antigen-specific T-cell expansion by tetramer staining: barely detectable
[3]
  Anti-OVA serum IgG response: barely detectable antibody response
[4]
  Expansion of OT-II CD4+ T-cells in spleens, fold compared to PBS: ~6.3 fold

B1: soluble VMP: recombinant vivax malaria protein (VMP001, SEQ ID NO:1) given as soluble protein with MPLA, Montanide or alum (protein)
chain: THCGHNVDLSKAINLNGVNFNNVDASSLGAAHVGQSASRGRGLGENPDDEEGDAKKKKDGKKAEPKNPRENKLKQPGDRADGQAAGNGAGGQPAGDRAAGQPAGDRAAGQPAGDGAAGQPAGDRADGQPAGDRADGQPAGDRAAGQAAGNGAGGQAAANGAGNQPGGGNAANKKAEDAGGNAGGNAGGQGQNNEGANAPNEKSVKEYLDKVRATVGTEWTPCSVTCGVGVRVRRRVNAANKKPEDLTLNDLETDVCT
modifications: VMP Amino Acid Sequence
[5]; mixed with MPLA or adjuvanted with Montanide or alum
  Fold more protein required to elicit a response than VMP-ICMVs: at least 10 fold
[5]; with MPLA, d 90
  Antigen-specific IgG isotype response: only Th2-skewed IgG1 antibodies
[6]
  Recognition of the AGDR motif by sera: did not recognize
[7]
  GCs per dLN: complete absence

B2: ovalbumin (protein, UniProt P01012 2-386, looked up)
Ovalbumin: GSIGAASMEFCFDVFKELKVHHANENIFYCPIAIMSALAMVYLGAKDSTRTQINKVVRFDKLPGFGDSIEAQCGTSVNVHSSLRDILNQITKPNDVYSFSLASRLYAEERYPILPEYLQCVKELYRGGLEPINFQTAADQARELINSWVESQTNGIIRNVLQPSSVDSQTAMVLVNAIVFKGLWEKAFKDEDTQAMPFRVTEQESKPVQMMYQIGLFRVASMASEKMKILELPFASGTMSMLVLLPDEVSGLEQLESIINFEKLTEWTSSNVMEERKIKVYLPRMKMEEKYNLTSVLMAMGITDVFSSSANLSGISSAESLKISQAVHAAHAEINEAGREVVGSAEAGVDAASVSEEFRADHPFLFCIKHIATNAVLFFGRCVSP
[8]
  Time at which antigen was detected in dLNs: ≤ 4 h
